According to US20070148163A1 (Kyowa Kirin, published 2007):
cellulose membrane = not defined here

Legend:
[1] = target: T1, human CD40 expressed on cells (Ramos, T24, Hs 766T, Capan-2) (human, UniProt P25942 21-277); assay: cell-based or functional assay
[2] = target: T2, 23rd of the 82 13-mer peptides covering the extracellular region of CD40 (reading uncertain); assay: SPOT peptide array (13-mers on cellulose membrane), Western-type detection, spot intensity by LumiImager
T2 construct: also called 23rd peptide
T2 peptide: Ac-SEFLDTWNRETHC-{cellulose membrane}
Method: (§1) The reaction thereafter was carried out based on a conventional Western analysis (see Reineke, U. et al. (2001), “Epitope mapping with synthetic peptides prepared by SPOT synthesis.” Antibody Engineering (Springer Lab Manual) Eds.: Kontermann/Dubel, 433-459, for example). In the analysis, coloring intensity of each spot was quantified using Lumilmager™ (Boehringer-Mannheim Corp.) (FIG. 1A-1, 1A-2, 1B-1 and B-2).

[3] = target: T3, 24th of the 82 13-mer peptides covering the extracellular region of CD40 (reading uncertain); assay: as above
T3 construct: also called 24th peptide
T3 peptide: Ac-FLDTWNRETHCHQ-{cellulose membrane}
Method: as §1

[4] = target: T4, 41st of the 82 13-mer peptides covering the extracellular region of CD40 (cysteine pairing not given here; reading uncertain); assay: as above
T4 construct: also called 41st peptide
T4 peptide: Ac-TICTCEEGWHCTS-{cellulose membrane}
Method: as §1

[5] = target: T5, 22nd of the 82 13-mer peptides covering the extracellular region of CD40 (reading uncertain); assay: as above
T5 construct: also called 22nd peptide
T5 peptide: Ac-GESEFLDTWNRET-{cellulose membrane}
Method: as §1

[6] = target: T6, 21st of the 82 13-mer peptides covering the extracellular region of CD40 (reading uncertain); assay: as above
T6 construct: also called 21st peptide
T6 peptide: Ac-PCGESEFLDTWNR-{cellulose membrane}
Method: as §1

[7] = target: T7, 20th of the 82 13-mer peptides covering the extracellular region of CD40 (cysteine pairing not given here; reading uncertain); assay: as above
T7 construct: also called 20th peptide
T7 peptide: Ac-CLPCGESEFLDTW-{cellulose membrane}
Method: as §1

[8] = target: T1, human CD40 expressed on cells (Ramos, …); assay: flow cytometry on Ramos cells
[9] = target: T8, CD40mut2 (mutant CD40-FC fusion protein) (UniProt P25942 21-193, limits assumed); assay: ELISA on mutant CD40-FC fusion protein
T8 construct: Human CD40 implied
T8 sequence (P25942 other isoform, or with tags, fused parts or gaps mutant limits assumed): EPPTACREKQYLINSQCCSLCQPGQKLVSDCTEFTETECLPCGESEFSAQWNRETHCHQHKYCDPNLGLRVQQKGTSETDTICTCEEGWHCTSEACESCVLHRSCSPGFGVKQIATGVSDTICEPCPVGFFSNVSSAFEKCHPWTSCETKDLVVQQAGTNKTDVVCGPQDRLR

[10] = target: T9, 42nd of the 82 13-mer peptides covering the extracellular region of CD40 (cysteine pairing not given here; reading uncertain); assay: SPOT peptide array (13-mers on cellulose membrane), Western-type detection, spot intensity by LumiImager
T9 construct: also called 42nd peptide
T9 peptide: Ac-CTCEEGWHCTSEA-{cellulose membrane}
Method: as §1

T1 sequence (P25942 21-277): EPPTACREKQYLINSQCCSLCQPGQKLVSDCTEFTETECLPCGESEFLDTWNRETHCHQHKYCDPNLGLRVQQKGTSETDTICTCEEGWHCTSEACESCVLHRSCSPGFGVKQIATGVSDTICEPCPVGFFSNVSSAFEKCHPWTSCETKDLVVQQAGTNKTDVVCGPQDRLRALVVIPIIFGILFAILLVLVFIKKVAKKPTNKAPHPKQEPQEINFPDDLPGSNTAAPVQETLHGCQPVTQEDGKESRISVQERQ

Row | Binder | CD95 expression enhancing activity in Ramos cells, reduction against IgG2 [1] [%] | binding result [8] | also measured
1 | KM341-1-19 antibody, constant region converted into IgG1 (antibody, V domains shown) VH: QVQLQQSGPGLVKPSQTLSLTCAISGDSVSSNSATWNWIRQSPSRDLEWLGRTYYRSKWYRDYVGSVKSRIIINPDTSNNQFSLQLNSVTPEDTAIYYCTRAQWLGGDYPYYYSMDVWGQGTTVTVSS VL: EIVLTQSPATLSLSPGERATLSCRASQSVSSYLAWYQQKPGQAPRLLIYDASNRATGIPARFSGSGSGTDFTLTISSLEPEDFAVYYCQQRSNTFGPGTKVDIK | ≥ 10 | – | –
2 | KM341-1-19 antibody, constant region converted into IgG3 (antibody, V domains shown) VH: QVQLQQSGPGLVKPSQTLSLTCAISGDSVSSNSATWNWIRQSPSRDLEWLGRTYYRSKWYRDYVGSVKSRIIINPDTSNNQFSLQLNSVTPEDTAIYYCTRAQWLGGDYPYYYSMDVWGQGTTVTVSS VL: EIVLTQSPATLSLSPGERATLSCRASQSVSSYLAWYQQKPGQAPRLLIYDASNRATGIPARFSGSGSGTDFTLTISSLEPEDFAVYYCQQRSNTFGPGTKVDIK | ≥ 10 | – | –
3 | KM341-1-19 antibody, constant region converted into IgG4 (antibody, V domains shown) VH: QVQLQQSGPGLVKPSQTLSLTCAISGDSVSSNSATWNWIRQSPSRDLEWLGRTYYRSKWYRDYVGSVKSRIIINPDTSNNQFSLQLNSVTPEDTAIYYCTRAQWLGGDYPYYYSMDVWGQGTTVTVSS VL: EIVLTQSPATLSLSPGERATLSCRASQSVSSYLAWYQQKPGQAPRLLIYDASNRATGIPARFSGSGSGTDFTLTISSLEPEDFAVYYCQQRSNTFGPGTKVDIK | ≥ 10 | – | –
4 | 2105 antibody, constant region converted into IgG1 (antibody, V domains shown) VH: EVQLVESGGGLVQPGRSLRLSCAASGFTFDDYAMHWVRQAPGKGLEWVSGISWNSGSLVHADSVKGRFTISRDNAKNSLYLQMNSLRAEDTALYYCARDRLFRGVRYYGMDVWGQGTTVTVSS VL: EIVLTQSPATLSLSPGERATLSCRASQSVSSYLAWYQQKPGQAPRLLIYDASNRATGIPARFSGSGSGTDFTLTISSLEPEDFAVYYCQQRSHWLTFGGGTKVEIK | ≥ 10 | – | –
5 | 2105 antibody, constant region converted into IgG3 (antibody, V domains shown) VH: EVQLVESGGGLVQPGRSLRLSCAASGFTFDDYAMHWVRQAPGKGLEWVSGISWNSGSLVHADSVKGRFTISRDNAKNSLYLQMNSLRAEDTALYYCARDRLFRGVRYYGMDVWGQGTTVTVSS VL: EIVLTQSPATLSLSPGERATLSCRASQSVSSYLAWYQQKPGQAPRLLIYDASNRATGIPARFSGSGSGTDFTLTISSLEPEDFAVYYCQQRSHWLTFGGGTKVEIK | ≥ 10 | – | –
6 | 2105 antibody, constant region converted into IgG4 (antibody, V domains shown) VH: EVQLVESGGGLVQPGRSLRLSCAASGFTFDDYAMHWVRQAPGKGLEWVSGISWNSGSLVHADSVKGRFTISRDNAKNSLYLQMNSLRAEDTALYYCARDRLFRGVRYYGMDVWGQGTTVTVSS VL: EIVLTQSPATLSLSPGERATLSCRASQSVSSYLAWYQQKPGQAPRLLIYDASNRATGIPARFSGSGSGTDFTLTISSLEPEDFAVYYCQQRSHWLTFGGGTKVEIK | ≥ 10 | – | –
7 | 4D11 antibody (original subclass IgG1) (antibody, V domains shown, also called 4D11G1) VH: QLQLQESGPGLLKPSETLSLTCTVSGGSISSPGYYGGWIRQPPGKGLEWIGSIYKSGSTYHNPSLKSRVTISVDTSKNQFSLKLSSVTAADTAVYYCTRPVVRYFGWFDPWGQGTLVTVSS VL: AIQLTQSPSSLSASVGDRVTITCRASQGISSALAWYQQKPGKAPKLLIYDASNLESGVPSRFSGSGSGTDFTLTISSLQPEDFATYYCQQFNSYPTFGQGTKVEIK | – | binds | binding result [2]: binds; binding result [3]: binds; binding result [4]: binds; binding result [5]: binds; binding result [6]: binds; binding result [7]: binds; binding result [9]: binds
8 | 4D11G4P (4D11 antibody, IgG4 with S228P) (antibody, V domains shown, Human IgG4 constant region with point mutation S228P (EU index; vector N5KG4P); also called IgG4P) VH: QLQLQESGPGLLKPSETLSLTCTVSGGSISSPGYYGGWIRQPPGKGLEWIGSIYKSGSTYHNPSLKSRVTISVDTSKNQFSLKLSSVTAADTAVYYCTRPVVRYFGWFDPWGQGTLVTVSS VL: AIQLTQSPSSLSASVGDRVTITCRASQGISSALAWYQQKPGKAPKLLIYDASNLESGVPSRFSGSGSGTDFTLTISSLQPEDFATYYCQQFNSYPTFGQGTKVEIK | – | binds | –
9 | 4D11G4PE (4D11 antibody, IgG4 with S228P and L235E) (antibody, V domains shown, also called IgG4PE; 4D11 antibody G4PE) VH: QLQLQESGPGLLKPSETLSLTCTVSGGSISSPGYYGGWIRQPPGKGLEWIGSIYKSGSTYHNPSLKSRVTISVDTSKNQFSLKLSSVTAADTAVYYCTRPVVRYFGWFDPWGQGTLVTVSS VL: AIQLTQSPSSLSASVGDRVTITCRASQGISSALAWYQQKPGKAPKLLIYDASNLESGVPSRFSGSGSGTDFTLTISSLQPEDFATYYCQQFNSYPTFGQGTKVEIKR | – | binds | –
10 | KM341-1-19 antibody (original IgG2) (antibody, Human IgG2; also called original KM341-1-19 antibody) heavy: QVQLQQSGPGLVKPSQTLSLTCAISGDSVSSNSATWNWIRQSPSRDLEWLGRTYYRSKWYRDYVGSVKSRIIINPDTSNNQFSLQLNSVTPEDTAIYYCTRAQWLGGDYPYYYSMDVWGQGTTVTVSSASTKGPSVFPLAPCSRSTSESTAALGCLVKDYFPEPVTVSWNSGALTSGVHTFPAVLQSSGLYSLSSVVTVPSSNFGTQTYTCNVDHKPSNTKVDKTVERKCCVECPPCPAPPVAGPSVFLFPPKPKDTLMISRTPEVTCVVVDVSHEDPEVQFNWYVDGVEVHNAKTKPREEQFNSTFRVVSVLTVVHQDWLNGKEYKCKVSNKGLPAPIEKTISKTKGQPREPQVYTLPPSREEMTKNQVSLTCLVKGFYPSDIAVEWESNGQPENNYKTTPPMLDSDGSFFLYSKLTVDKSRWQQGNVFSCSVMHEALHNHYTQKSLSLSPGK VL: EIVLTQSPATLSLSPGERATLSCRASQSVSSYLAWYQQKPGQAPRLLIYDASNRATGIPARFSGSGSGTDFTLTISSLEPEDFAVYYCQQRSNTFGPGTKVDIK | – | – | binding result [4]: binds; binding result [10]: binds
11 | 4D11 antibody IgG4 (antibody, V domains shown, Human IgG4 constant region (vector N5KG4), no point mutation; also called 4D11 IgG4) VH: QLQLQESGPGLLKPSETLSLTCTVSGGSISSPGYYGGWIRQPPGKGLEWIGSIYKSGSTYHNPSLKSRVTISVDTSKNQFSLKLSSVTAADTAVYYCTRPVVRYFGWFDPWGQGTLVTVSS VL: AIQLTQSPSSLSASVGDRVTITCRASQGISSALAWYQQKPGKAPKLLIYDASNLESGVPSRFSGSGSGTDFTLTISSLQPEDFATYYCQQFNSYPTFGQGTKVEIK | – | binds | –
